# Experimental data: US20150064204A1 (Amgen, published 2015)
# Like-named read-outs stand apart in the source and are kept apart here.
# T1: cynomolgus monkey GITR (cynomolgus monkey, UniProt Q9Y5U5 26-241 (human entry))
# T1 construct: also called cyno GITR
# T1 chain: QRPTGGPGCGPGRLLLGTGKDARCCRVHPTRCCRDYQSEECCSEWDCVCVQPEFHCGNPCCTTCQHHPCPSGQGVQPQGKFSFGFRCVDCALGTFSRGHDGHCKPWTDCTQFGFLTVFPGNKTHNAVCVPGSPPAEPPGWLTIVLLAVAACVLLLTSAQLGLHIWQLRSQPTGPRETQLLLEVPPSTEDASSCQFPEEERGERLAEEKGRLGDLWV
# T2: human GITR (human, UniProt Q9Y5U5 26-241)
# T2 construct: also called TNFRSF18; Glucocorticoid-induced TNFR-related gene
# T2 sequence: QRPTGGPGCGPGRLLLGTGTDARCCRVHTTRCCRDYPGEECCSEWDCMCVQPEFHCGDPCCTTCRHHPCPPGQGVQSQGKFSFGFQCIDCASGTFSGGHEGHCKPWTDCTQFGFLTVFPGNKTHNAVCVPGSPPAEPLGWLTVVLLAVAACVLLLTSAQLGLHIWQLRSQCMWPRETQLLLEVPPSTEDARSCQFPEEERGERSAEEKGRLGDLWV
# How the values were obtained:
# cynomolgus monkey GITR [1] = biological target: T1, cynomolgus monkey GITR; experiment: flow cytometry, cyno T cell binding
# human GITR [2] = biological target: T2, human GITR; experiment: flow cytometry, human T cell binding
# human GITR [3] = biological target: T2, human GITR; experiment: cell-based or functional assay
# cynomolgus monkey GITR [4] = biological target: T1, cynomolgus monkey GITR; experiment: cyno T cell binding EC50 against human T cell binding EC50
# human GITR [5] = biological target: T2, human GITR; experiment: flow cytometry on activated human T cells
# human GITR [6] = biological target: T2, human GITR; experiment: cell-based or functional assay; remark: listed apart in the source
EC50 (cynomolgus monkey GITR [1]),EC50 (human GITR [2]),Activation EC50 ng/mL (IFNg secretion) (human GITR [3]),Proliferation (Fold over CD3) (human GITR [3]),Cyno:Hu Binding EC50 Ratio (cynomolgus monkey GITR [4]),EC50 (human GITR [5]),Proliferation (Fold over CD3) (human GITR [6]),Proliferation EC50 (human GITR [6]),Binder
173 ng/mL,27 ng/mL,0.32 ng/mL,3 fold over CD3,6.4 ratio,56 ng/mL,3 fold over CD3,3 ng/mL,"7A10v1 (antibody, human IgG1, kappa, V domains shown, Engineered variant; also called Ab39; SS-13810) VH: QVQLVESGGGVVQPGRSLRLSCAASGFTFSSYGMHWVRQAPGKGLEWMAVIWYVGSNKYYADSVKGRFTISRDNSKNTLYLQMNSLRAEDTAVYYCARGGELGRDYYSGMDVWGQGTTVTVSS VL: DIQMTQSPSSLSASVGDRVTITCRASQGIRNDLGWYQQKPGKAPKRLIYAASSLQSGVPSRFSGSGSGTEFTLTISSLQPEDFATYYCQQHNSYPWTFGQGTKVEIKR"
153 ng/mL,33 ng/mL,0.64 ng/mL,3.5 fold over CD3,4.6 ratio,57 ng/mL,3.5 fold over CD3,3 ng/mL,"41G5v2 (antibody, human IgG1, kappa, V domains shown, Engineered variant; also called Ab56; SS-13809) VH: QVQLVESGGGVVQPGRSLRLSCAASGFTFSSYGMHWVRQAPGKGLEWVAVIWYPGSNKYYAESVKGRFTISRDNSKNTLYLQMNSLRAEDTAVYYCARGGELGRYYYYGMDVWGQGTTVTVSS VL: DIQMTQSPSSLSASVGDRVTVTCRASQGIRNDLGWYQQKPGKAPKRLIYAASSLQSGVPSRFSGSGSGTEFTLTISSLQPEDFATYYCLQHNNYPWTFGQGTKVDIKR"
301 ng/mL,35 ng/mL,0.86 ng/mL,2.9 fold over CD3,8.6 ratio,60 ng/mL,2.9 fold over CD3,7 ng/mL,"33C9v2 (antibody, human IgG1, kappa, V domains shown, Engineered variant; also called Ab51; SS-13808) VH: QVQVVESGGGVVQPGRSLRLSCAASGFTFSSYGMHWVRQAPGKGLEWVSVIWYEGSNKYYAESVKGRFTISRDNSKNTLYLQMNSLRAEDTAVYYCARGGLLGYYYYYGMDVWGQGTTVTVSS VL: DIQMTQSPSSLSASVGDRVTITCRASQGIRNDLGWYQQKPGKAPKRLIYDASSLQSGVPSRFSGSGSGTEFTLTISSLQPEDFATYYCLQHHSYPWTFGQGTKVEIKR"
184 ng/mL,26 ng/mL,0.06 ng/mL,3.7 fold over CD3,7.1 ratio,90 ng/mL,3.7 fold over CD3,6 ng/mL,"9H6v3 (antibody, human IgG1, kappa, V domains shown, Engineered variant; also called Ab46; SS-13806) VH: QVQLVESGGGVVQPGRSLRLSCVASGFTFSSYGMHWIRQAPGKGLEWVAVIWYEGSNKYYAESVKGRFTISRDNSKNTLYLQMNSLRAEDTAVYYCARGGRLGKDYYSGMDVWGQGTTVTVSS VL: DIQMTQSPSSLSASVGDRVTITCRASQGIRNDLGWYQQKPGKAPKRLIYATSSLQSGVPSRFSGSGSGTEFTLTISSLQPEDFATYYCLQHNTYPWTFGQGTKVEIKR"
619 ng/mL,164 ng/mL,1.6 ng/mL,3.2 fold over CD3,3.7 ratio,279 ng/mL,3.2 fold over CD3,11 ng/mL,"5H7v2 (antibody, human IgG1, kappa, V domains shown, Engineered variant; also called Ab26; SS-13807) VH: QVQLQESGPGLVKPSETLSLTCTVSGGSISSGGYFWSWIRQPPGKGLEWIGYIYYSGTTYYNPSLKSRVTISIDTSKNQFSLKLSSVTAADTAVYYCARDLFYYDTSGPRGFDPWGQGTLVTVSS VL: EIVLTQSPGTLSLSPGERATLSCRASQTVSSNYLAWYQQKPGQAPRLLIYGSSTRATGIPDRFSGSGSGTDFTLTISRLEPEDFAVYYCQQYDSSPWTFGQGTKVEIKR"
